Measurements published in patent US6824783.

Target: viral gp41 (HIV-1 transmembrane protein) of HIV-1IIIB (HIV-1 IIIB)
Test: cell-based or functional assay

Substance	Cell fusion (IC90) [µM]	HIV infectivity (IC90) [µM]
M41-PΔ178 (M41-P from which the DP-178 region has been deleted; gp41 residues 540-642 with Ile578Pro) (from UniProt P03377 540-642)	> 50	> 8
M41 (maltose binding protein fused to the extracellular domain of HIV-1 gp41, residues 540-686) (from UniProt P03377 540-686)	> 50	> 16
M41-P (M41 with an Ile to Pro mutation at position 578) (from UniProt P03377 540-686)	0.083	0.066
